From patent publication US20220372484A1 come the findings set out here.

The test concerns the target human FPR2 (transcript variant 1; Origene) fused with mGFP (human) (UniProt P25090). Kind of test: cell-based or functional assay.

As for “LL37 peptide (from UniProt P49913 134-170)”, the Inhibition (%) of forskolin-mediated cAMP production came out at 46%.
